# Assay results taken from patent US20080200369A1 (SANFORD BURNHAM MEDICAL RESEARCH INSTITUTE, published 2008).
# T1: [^35S]-tastin (UniProt Q12815 1-778, limits assumed, [^35S]-methionine labeled)
# T1 construct: also called in vitro translated [^35S]-labeled tastin
# T1 sequence (looked up): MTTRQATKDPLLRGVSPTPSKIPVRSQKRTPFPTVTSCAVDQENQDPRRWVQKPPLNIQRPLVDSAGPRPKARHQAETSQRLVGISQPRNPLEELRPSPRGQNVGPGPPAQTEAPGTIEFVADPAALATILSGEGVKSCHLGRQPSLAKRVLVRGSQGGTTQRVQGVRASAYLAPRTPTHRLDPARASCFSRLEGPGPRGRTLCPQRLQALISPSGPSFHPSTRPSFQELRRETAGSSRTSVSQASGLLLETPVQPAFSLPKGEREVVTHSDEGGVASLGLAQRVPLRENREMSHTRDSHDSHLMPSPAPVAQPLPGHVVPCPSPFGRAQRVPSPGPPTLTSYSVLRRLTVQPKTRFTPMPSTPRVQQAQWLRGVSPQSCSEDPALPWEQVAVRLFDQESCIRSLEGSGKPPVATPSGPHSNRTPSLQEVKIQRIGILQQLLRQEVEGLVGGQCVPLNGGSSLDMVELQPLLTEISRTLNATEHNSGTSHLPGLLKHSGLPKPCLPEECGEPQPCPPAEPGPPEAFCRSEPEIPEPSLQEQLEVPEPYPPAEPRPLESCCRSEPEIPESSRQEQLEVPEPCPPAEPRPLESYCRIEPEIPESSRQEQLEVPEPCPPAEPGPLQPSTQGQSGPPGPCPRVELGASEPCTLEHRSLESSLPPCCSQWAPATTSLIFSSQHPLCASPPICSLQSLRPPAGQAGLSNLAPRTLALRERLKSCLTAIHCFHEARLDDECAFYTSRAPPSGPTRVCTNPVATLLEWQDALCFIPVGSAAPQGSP
# B1: GST-ErbB4 fusion protein (cytoplasmic domain of human ErbB4) (other, UniProt Q15303 676-1308, looked up)
# chain: RRKSIKKKRALRRFLETELVEPLTPSGTAPNQAQLRILKETELKRVKVLGSGAFGTVYKGIWVPEGETVKIPVAIKILNETTGPKANVEFMDEALIMASMDHPHLVRLLGVCLSPTIQLVTQLMPHGCLLEYVHEHKDNIGSQLLLNWCVQIAKGMMYLEERRLVHRDLAARNVLVKSPNHVKITDFGLARLLEGDEKEYNADGGKMPIKWMALECIHYRKFTHQSDVWSYGVTIWELMTFGGKPYDGIPTREIPDLLEKGERLPQPPICTIDVYMVMVKCWMIDADSRPKFKELAAEFSRMARDPQRYLVIQGDDRMKLPSPNDSKFFQNLLDEEDLEDMMDAEEYLVPQAFNIPPPIYTSRARIDSNRSEIGHSPPPAYTPMSGNQFVYRDGGFAAEQGVSVPYRAPTSTIPEAPVAQGATAEIFDDSCCNGTLRKPVAPHVQEDSSTQRYSADPTVFAPERSPRGELDEEGYMTPMRDKPKQEYLNPVEENPFVSRRKNGDLQALDNPEYHNASNGPPKAEDEYVNEPLYLNTFANTLGKAEYLKNNILSMPEKAKKAFDNPDYWNHSLPPRSTLQHPDYLQEYSTKYFYKQNGRIRPIVAENPEYLSEFSLKPGTVLPPPPYRHRNTVV
# notes: domain: cytoplasmic domain; Expressed in bacteria, immobilized on glutathione beads; Linker between GST and ErbB4 not described; not shown: glutathione S-transferase encoded by the vector pGEX-KG
# Target: T1, [^35S]-tastin
# Assay: GST pull-down of in vitro translated [^35S]-protein on glutathione beads, autoradiography (FIG. 7A)
# Protocol: In vitro translated [³⁵S]-labeled trophinin, bystin or tastin was incubated with GST or GST-ErbB4 immobilized on glutathione beads. Bead-bound materials were visualized by autoradiography after gel electrophoresis. […] Bead-bound materials were visualized by autoradiography. Note that trophinin is captured by GSTErbB4 when bystin is present. […] HT-H cells treated with or without GWRQ peptide were subjected to immunoprecipitation with antiErbB4 antibody, followed by western blot analysis. Note that trophinin and bystin were co-immunoprecipitated with ErbB4 from cells not treated with GWRQ, whereas less trophinin was present in precipitates from GWRQ-treated cells.
# A GST-fusion protein pull-down assay was carried out as described (Swaffield, J C, et al. 1996). Trophinin, bystin, and tastin proteins were produced as [³⁵S]-methionine labeled proteins using an vitro transcription and translation kit (TnT, Promega), according to the manufacturer's protocol. [³⁵S]-trophinin, [³⁵S]-bystin, and [³⁵S]-tastin were mixed individually with GSTErbB4 immobilized on glutathione beads in binding buffer (Swaffield, J C, et al. 1996) at 4° C. for 1 hour. After washing unbound materials with binding buffer, bead-bound material was eluted by boiling in SDS sample buffer. [³⁵S]-labeled proteins eluted were analyzed by SDS-PAGE followed by fluorography.
binder,measurement,value
B1,binding result,no binding
